The results in this text go back to PMC2848857, “The Crystal Structure of PPIL1 Bound to Cyclosporine A Suggests a Binding Mode for a Linear Epitope of the SKIP Protein” (PLoS ONE, 2010).

The target of the test is T1, GST-PPIL1 fusion protein (human, UniProt Q9Y3C6 1-166).
T1 construct: Peptidyl-prolyl isomerase like 1 (PPIL1), human, full length, cloned from a human cDNA library into pGEX-6P1; also called Recombinant GST-PPIL1; Peptidyl-prolyl isomerase like 1; source: E. coli Rosetta 2, glutathione-sepharose
T1 sequence (looked up): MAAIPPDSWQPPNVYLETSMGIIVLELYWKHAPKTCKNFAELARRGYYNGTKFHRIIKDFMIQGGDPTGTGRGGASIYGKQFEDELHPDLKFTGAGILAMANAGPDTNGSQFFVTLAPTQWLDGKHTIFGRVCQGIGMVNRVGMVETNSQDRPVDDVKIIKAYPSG
Briefly: peptide or protein array; SKIP 20-mer peptides on cellulose membrane; GST-PPIL1 or GST alone at 40 µg/ml in blocking buffer (5% milk powder, 5% saccharose in TBS, pH 8.0), overnight at 4°C; detected with anti-GST antibody and chemiluminescence. The note with it: both partners purified.

B1: peptide A12 of the SKIP peptide array (peptide, UniProt Q13573 60-79, looked up)
peptide: DGGAFPEIHVAQYPLDMGRK
notes: The limits fit the twelfth peptide of a scan that starts at residue 49 with a one amino acid offset; source: synthetic peptide, spotted on cellulose membrane
As to B1, the binding result is on record as “binds”.
